# Source: the supplement of paper PMC10065799, “High-throughput profiling of sequence recognition by tyrosine kinases and SH2 domains using bacterial peptide display” (eLife, 2023)
# Key:
# AncSZ = assay: phosphorylation enrichment, bacterial display (enrichment ratio); higher = better substrate or ligand; peptides without Tyr show the background
# FGFR1 = FGFR1 (UniProt P11362); assay: as above
# Fer (mouse) = assay: as above
# Fyn = Fyn (UniProt P06241); assay: as above
# EPHB1 = EPHB1 (UniProt P54762); assay: as above
# Fes = Fes (UniProt P07332); assay: as above
# MERTK = MERTK (UniProt Q12866); assay: as above
# EPHB2 = EPHB2 (UniProt P29323); assay: as above
# c-Abl (mouse) = assay: as above
# c-Src = assay: as above
# Jak2 = Jak2 (UniProt O60674); assay: as above
# Hck = Hck (UniProt P08631); assay: as above
# FGFR3 = FGFR3 (UniProt P22607); assay: as above
# c-Src SH2 = assay: SH2 binding enrichment of the phosphorylated peptide, bacterial display (enrichment ratio); higher = better substrate or ligand; peptides without Tyr show the background
# SHP2-C SH2 = assay: as above
# Grb2 SH2 = Grb2 SH2 (UniProt P62993); assay: as above
# 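Throughout, for SH2 binding enrichment of the phosphorylated peptide, bacterial display: peptide library displayed on the E. coli surface as eCPX fusions, selected cells deep-sequenced, score is each peptide's frequency after selection divided by its frequency in the input.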
# 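Throughout, for phosphorylation enrichment, bacterial display: 11-residue human phosphosite peptides and single-mutation variants displayed on the E. coli surface, counted by deep sequencing, each peptide's frequency after selection divided by its frequency in the unselected input library; frequency after pTyr selection over input frequency; kinase dosed for 20-30% of maximal phosphorylation in three min.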
# Chain of Hck (P08631 whole entry, looked up): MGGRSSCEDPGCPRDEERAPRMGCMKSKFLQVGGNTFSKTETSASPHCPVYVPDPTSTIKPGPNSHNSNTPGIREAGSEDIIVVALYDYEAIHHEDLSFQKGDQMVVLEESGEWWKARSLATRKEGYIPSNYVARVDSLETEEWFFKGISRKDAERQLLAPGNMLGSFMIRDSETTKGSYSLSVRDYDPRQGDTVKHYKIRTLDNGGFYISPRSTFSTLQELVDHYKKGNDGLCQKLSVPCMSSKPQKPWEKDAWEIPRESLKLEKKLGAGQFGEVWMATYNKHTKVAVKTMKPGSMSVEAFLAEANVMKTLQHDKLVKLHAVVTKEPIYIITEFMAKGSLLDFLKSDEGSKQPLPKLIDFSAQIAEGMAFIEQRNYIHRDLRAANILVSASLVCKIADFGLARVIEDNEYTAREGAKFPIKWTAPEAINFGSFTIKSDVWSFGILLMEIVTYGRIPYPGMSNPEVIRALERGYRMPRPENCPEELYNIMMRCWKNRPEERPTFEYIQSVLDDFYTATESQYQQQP
# Chain of FGFR1 (P11362 whole entry, looked up): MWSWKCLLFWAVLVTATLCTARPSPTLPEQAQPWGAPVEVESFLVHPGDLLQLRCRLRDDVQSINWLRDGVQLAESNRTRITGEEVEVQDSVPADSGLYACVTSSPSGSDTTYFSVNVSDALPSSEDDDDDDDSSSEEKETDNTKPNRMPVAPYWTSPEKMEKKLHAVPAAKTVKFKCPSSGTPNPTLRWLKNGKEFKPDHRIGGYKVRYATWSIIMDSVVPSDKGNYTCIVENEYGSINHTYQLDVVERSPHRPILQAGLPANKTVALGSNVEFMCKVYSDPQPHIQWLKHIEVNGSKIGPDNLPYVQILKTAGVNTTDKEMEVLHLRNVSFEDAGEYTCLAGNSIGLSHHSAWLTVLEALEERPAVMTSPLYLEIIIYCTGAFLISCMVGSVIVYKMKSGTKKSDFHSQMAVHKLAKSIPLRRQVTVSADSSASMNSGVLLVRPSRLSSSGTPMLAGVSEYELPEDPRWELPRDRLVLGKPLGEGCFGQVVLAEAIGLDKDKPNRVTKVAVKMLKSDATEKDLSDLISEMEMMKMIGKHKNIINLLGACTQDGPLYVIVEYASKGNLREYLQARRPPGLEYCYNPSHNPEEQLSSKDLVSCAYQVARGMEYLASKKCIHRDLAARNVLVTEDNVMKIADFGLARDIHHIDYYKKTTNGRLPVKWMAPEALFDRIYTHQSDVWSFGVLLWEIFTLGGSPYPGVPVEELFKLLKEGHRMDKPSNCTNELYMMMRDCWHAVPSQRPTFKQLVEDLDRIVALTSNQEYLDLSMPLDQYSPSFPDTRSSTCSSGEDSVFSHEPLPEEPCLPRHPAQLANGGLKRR
# Chain of Jak2 (O60674 whole entry, looked up): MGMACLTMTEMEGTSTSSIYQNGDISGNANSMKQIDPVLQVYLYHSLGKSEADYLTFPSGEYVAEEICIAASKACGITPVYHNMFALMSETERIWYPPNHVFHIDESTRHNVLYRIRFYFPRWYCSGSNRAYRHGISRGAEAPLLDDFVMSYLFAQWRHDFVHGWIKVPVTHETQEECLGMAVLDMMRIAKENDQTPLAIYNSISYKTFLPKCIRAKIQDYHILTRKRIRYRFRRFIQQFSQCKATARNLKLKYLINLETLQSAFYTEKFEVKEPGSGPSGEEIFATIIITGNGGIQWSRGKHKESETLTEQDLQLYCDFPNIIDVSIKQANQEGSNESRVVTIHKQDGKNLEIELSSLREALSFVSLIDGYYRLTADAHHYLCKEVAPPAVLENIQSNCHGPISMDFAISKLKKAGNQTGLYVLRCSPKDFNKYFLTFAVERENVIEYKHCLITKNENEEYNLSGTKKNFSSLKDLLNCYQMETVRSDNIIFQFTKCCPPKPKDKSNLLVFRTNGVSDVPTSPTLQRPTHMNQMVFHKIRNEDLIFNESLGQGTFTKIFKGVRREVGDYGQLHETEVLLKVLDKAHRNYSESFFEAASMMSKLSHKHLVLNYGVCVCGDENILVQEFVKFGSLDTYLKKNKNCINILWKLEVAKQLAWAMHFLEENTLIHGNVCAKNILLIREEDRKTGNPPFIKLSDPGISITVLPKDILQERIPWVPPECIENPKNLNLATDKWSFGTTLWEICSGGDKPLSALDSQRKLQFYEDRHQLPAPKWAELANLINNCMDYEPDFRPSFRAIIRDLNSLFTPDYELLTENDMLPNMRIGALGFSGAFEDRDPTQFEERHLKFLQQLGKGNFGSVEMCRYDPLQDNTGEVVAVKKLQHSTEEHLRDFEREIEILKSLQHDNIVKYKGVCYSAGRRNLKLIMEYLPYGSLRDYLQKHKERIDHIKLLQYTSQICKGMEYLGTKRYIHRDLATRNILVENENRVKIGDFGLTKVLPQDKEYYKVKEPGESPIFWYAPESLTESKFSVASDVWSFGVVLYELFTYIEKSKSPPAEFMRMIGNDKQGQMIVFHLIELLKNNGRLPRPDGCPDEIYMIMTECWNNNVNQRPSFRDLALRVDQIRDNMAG
# Chain of EPHB1 (P54762 whole entry, looked up): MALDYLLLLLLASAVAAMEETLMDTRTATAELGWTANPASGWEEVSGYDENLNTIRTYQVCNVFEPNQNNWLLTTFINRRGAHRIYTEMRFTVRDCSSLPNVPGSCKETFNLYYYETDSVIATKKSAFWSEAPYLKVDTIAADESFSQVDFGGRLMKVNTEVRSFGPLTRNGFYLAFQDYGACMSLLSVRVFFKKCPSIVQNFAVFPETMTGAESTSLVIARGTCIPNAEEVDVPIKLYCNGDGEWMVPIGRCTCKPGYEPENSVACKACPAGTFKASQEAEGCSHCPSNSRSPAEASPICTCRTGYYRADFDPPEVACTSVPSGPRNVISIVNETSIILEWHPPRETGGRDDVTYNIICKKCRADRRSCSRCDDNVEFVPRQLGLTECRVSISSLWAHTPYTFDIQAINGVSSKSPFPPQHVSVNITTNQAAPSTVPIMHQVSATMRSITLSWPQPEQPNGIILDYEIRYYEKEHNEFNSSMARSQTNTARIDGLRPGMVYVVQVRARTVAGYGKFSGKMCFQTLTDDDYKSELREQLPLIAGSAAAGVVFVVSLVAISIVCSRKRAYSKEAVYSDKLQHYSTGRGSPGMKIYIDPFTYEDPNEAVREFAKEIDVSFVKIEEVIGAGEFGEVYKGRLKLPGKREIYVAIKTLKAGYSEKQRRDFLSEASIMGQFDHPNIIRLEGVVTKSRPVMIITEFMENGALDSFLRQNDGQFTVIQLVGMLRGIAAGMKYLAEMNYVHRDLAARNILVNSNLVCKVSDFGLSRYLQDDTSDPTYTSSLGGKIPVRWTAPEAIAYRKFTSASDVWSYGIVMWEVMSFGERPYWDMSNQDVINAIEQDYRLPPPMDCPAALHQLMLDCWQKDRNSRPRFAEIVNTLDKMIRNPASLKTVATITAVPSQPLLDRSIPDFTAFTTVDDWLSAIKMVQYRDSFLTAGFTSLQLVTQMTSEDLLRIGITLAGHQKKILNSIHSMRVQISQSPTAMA
# Chain of FGFR3 (P22607 whole entry, looked up): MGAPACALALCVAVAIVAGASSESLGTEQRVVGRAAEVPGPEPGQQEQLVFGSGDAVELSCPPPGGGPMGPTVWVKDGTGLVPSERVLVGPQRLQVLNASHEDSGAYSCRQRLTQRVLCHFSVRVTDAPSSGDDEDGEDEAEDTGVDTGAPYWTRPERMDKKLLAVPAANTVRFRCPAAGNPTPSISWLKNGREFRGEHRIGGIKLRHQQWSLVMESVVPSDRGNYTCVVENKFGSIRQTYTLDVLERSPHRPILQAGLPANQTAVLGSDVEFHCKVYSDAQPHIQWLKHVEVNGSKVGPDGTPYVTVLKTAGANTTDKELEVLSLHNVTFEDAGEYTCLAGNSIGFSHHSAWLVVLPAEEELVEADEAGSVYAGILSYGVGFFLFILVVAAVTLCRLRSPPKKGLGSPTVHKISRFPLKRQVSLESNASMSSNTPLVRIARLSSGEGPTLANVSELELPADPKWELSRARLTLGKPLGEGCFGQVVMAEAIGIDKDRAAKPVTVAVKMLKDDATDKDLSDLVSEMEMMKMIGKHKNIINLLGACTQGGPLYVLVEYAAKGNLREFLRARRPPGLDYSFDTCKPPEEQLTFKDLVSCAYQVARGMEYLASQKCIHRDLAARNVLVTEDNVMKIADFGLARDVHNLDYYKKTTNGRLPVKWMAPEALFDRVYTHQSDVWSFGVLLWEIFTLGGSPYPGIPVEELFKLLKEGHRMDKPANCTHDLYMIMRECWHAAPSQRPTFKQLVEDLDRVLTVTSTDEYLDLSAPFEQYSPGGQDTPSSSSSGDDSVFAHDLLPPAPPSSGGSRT
# Chain of Fyn (P06241 whole entry, looked up): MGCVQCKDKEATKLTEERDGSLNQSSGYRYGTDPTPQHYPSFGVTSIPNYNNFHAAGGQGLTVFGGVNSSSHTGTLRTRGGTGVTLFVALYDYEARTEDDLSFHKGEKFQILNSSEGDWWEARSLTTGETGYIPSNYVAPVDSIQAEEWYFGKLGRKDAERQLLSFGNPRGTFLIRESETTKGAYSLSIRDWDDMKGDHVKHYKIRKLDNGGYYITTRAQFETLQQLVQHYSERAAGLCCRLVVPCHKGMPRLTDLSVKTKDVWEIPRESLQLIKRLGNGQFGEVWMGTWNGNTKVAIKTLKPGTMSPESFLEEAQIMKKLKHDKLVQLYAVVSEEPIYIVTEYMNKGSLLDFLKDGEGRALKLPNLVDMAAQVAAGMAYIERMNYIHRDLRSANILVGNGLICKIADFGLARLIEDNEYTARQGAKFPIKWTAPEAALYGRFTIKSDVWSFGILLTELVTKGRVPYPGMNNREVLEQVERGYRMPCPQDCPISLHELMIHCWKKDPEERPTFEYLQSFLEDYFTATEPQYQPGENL
SH2 binding enrichment (c-Src SH2),SH2 binding enrichment (SHP2-C SH2),SH2 binding enrichment (Grb2 SH2),Sequence,phosphorylation enrichment (AncSZ),phosphorylation enrichment (FGFR1),phosphorylation enrichment (Fer (mouse)),phosphorylation enrichment (Fyn),phosphorylation enrichment (EPHB1),phosphorylation enrichment (Fes),phosphorylation enrichment (MERTK),phosphorylation enrichment (EPHB2),phosphorylation enrichment (c-Abl (mouse)),phosphorylation enrichment (c-Src),phosphorylation enrichment (Jak2),phosphorylation enrichment (Hck),phosphorylation enrichment (FGFR3)
0.695,0.544,0.841,MDDDQYALLTT [EFCAB6_Y675],1.39,1.1,0.736,0.64,0.677,1.26,0.632,0.785,0.732,0.64,0.996,0.956,1.18
0.476,0.591,0.752,MDYRSYPREYG [RBM10_Y44],0.621,0.404,0.331,0.366,0.337,0.626,0.296,0.402,0.472,0.319,0.515,0.41,0.684
0.662,0.908,0.892,MGGSVYFSFPD [HIKESHI_Y55_YF],1.55,3.19,0.55,4.01,1.09,1.32,3.89,0.991,1.12,5.05,1.94,2.64,2.85
0.385,0.601,0.676,MGSFNYLGFAW [SPTLC2_Y178_R183W_YF],1.17,0.971,0.559,0.547,2.34,1.16,0.681,1.09,0.768,0.72,1.85,0.588,1.03
0.518,0.803,1.08,MPLDQYSPSFP [FGFR1_Y776],0.857,0.631,0.654,0.496,0.399,0.941,0.595,0.617,0.706,0.552,0.917,0.6,0.79
0.512,1.09,1.01,MSRDIYSTDFF [NTRK1_Y676_YF],0.852,2.6,1.63,6.12,5.71,1.04,10.4,6.8,0.631,5.13,0.726,4.34,1.65
0.929,0.595,0.837,MSRNLYSGDCF [DDR2_Y736_Y740C_YF],1.01,0.793,0.911,1.71,2.02,1,5.87,1.97,0.739,1.93,0.903,2.12,0.968
0.539,0.469,0.871,MVTSGYKAKMI [EFR3A_Y447_T451M],0.563,0.384,0.393,0.355,0.401,0.589,0.414,0.528,0.552,0.435,0.695,0.39,0.389
0.449,0.686,0.899,NACGLYFKLHN [GATA2_Y376_YF],1.26,0.437,0.425,0.427,0.552,0.979,0.466,0.496,0.784,0.358,1.21,0.491,0.722
0.678,0.97,1.11,NCLRVYVAGRF [CRB1_Y711_E710V],1.71,0.447,0.434,0.535,0.497,1.15,0.339,0.627,1.03,0.567,1.08,0.414,0.758
0.658,0.767,0.902,NDQPDYDSVAS [GIT2_Y392],1.3,0.522,0.558,0.546,0.63,1.19,0.511,0.671,0.849,0.992,1.23,0.735,0.76
0.753,0.713,0.847,NFRRGYHLQVL [CD200R1L_Y138_H135R],0.621,0.462,0.439,0.416,0.379,0.699,0.394,0.473,0.486,0.38,0.528,0.386,0.528
0.679,0.505,0.709,NFYEYYVDDPP [GCHFR_Y48],2.53,5.94,6.58,5.21,5.35,1.29,6.46,6.26,0.877,4.3,1.23,2.65,4.76
1.43,16.6,0.78,NGTVTYAIIAG [CDH23_Y1672_V1675I],1.1,0.628,0.503,0.968,2.83,1.28,2.68,1.12,0.892,1.33,0.989,1.31,0.746
0.644,0.618,0.949,NHFKRYNLCAE [PTEN_Y68_I67R_YF],0.638,0.456,0.419,0.459,0.384,0.668,0.485,0.565,0.678,0.538,0.59,0.449,0.471
0.427,0.761,0.752,NHYKIYNPCAE [PTEN_Y68_L70P],0.714,0.485,0.382,0.508,0.437,0.834,0.427,0.48,0.607,0.424,0.569,0.55,0.573

SH2 binding enrichment (c-Src SH2),SH2 binding enrichment (SHP2-C SH2),SH2 binding enrichment (Grb2 SH2),Sequence,phosphorylation enrichment (AncSZ),phosphorylation enrichment (FGFR1),phosphorylation enrichment (Fer (mouse)),phosphorylation enrichment (Fyn),phosphorylation enrichment (EPHB1),phosphorylation enrichment (Fes),phosphorylation enrichment (MERTK),phosphorylation enrichment (EPHB2),phosphorylation enrichment (c-Abl (mouse)),phosphorylation enrichment (c-Src),phosphorylation enrichment (Jak2),phosphorylation enrichment (Hck),phosphorylation enrichment (FGFR3)
1.06,1.12,1.17,NKKYHYRELPV [ERN2_Y860_H858Y],0.456,0.316,0.32,0.296,0.361,0.502,0.28,0.278,0.515,0.32,0.379,0.29,0.345
0.342,0.765,0.745,NKVFTYIFIME [SCN4A_Y1074_D1069N],1.28,0.507,0.589,0.46,0.685,1.71,0.419,0.613,0.99,0.487,1.46,0.509,0.857
0.64,0.673,0.74,NLVSEYQQFQD [TUBB3_Y422_D417N_YF],1.17,0.545,0.556,0.574,0.739,1.14,0.429,0.624,0.88,0.698,1.08,0.535,0.745
0.724,0.579,0.78,NPSFNYEIVNQ [DYNC1H1_Y3379_R3384Q_YF],1.43,0.763,1.12,0.524,3.9,1.47,0.492,1.44,0.586,0.408,1.13,0.602,0.847
0.404,0.609,0.675,NQSVRYDSSLK [ABCC8_Y1353_L1349Q],0.523,0.341,0.57,0.461,0.484,0.601,0.423,0.491,0.487,0.433,0.556,0.429,0.456
2.49,0.854,1.08,NTGNYYDLYGG [PTPN11_Y63_D61N],1.73,15.7,2.82,6.39,18.3,0.984,9.28,20.1,1.01,5.29,2.42,6.84,12.6
0.63,0.488,0.802,PADQAYSWYQH [NDST1_Y711_R709Q],1.55,5.18,20.6,1.17,0.755,1.57,3.75,0.674,0.6,1.58,0.765,1.37,3.15
0.538,0.989,0.958,PELIDYGKLWK [ACTN1_Y193_R197W],1.31,0.535,0.531,0.601,0.718,1.26,0.522,0.683,0.912,0.59,0.761,0.393,0.766
0.557,0.934,0.895,PELINYHQHFS [BTK_Y361_N365Y_YF],0.508,0.591,0.366,0.547,0.723,0.869,0.401,0.44,0.711,0.38,0.869,0.513,0.799
0.935,0.676,0.691,PEVSGYCHYAD [TG_Y234_C237Y],0.864,0.427,1.1,0.506,0.831,1.1,0.425,0.616,1.2,0.454,1.04,0.658,0.714
0.872,1.02,1.02,PFRFIYMAVQH [PTPN11_Y515_Q510P_YF],1.09,0.463,0.563,0.732,0.741,1.01,0.527,0.737,1.27,1.26,1.18,1.11,0.726
0.883,0.549,0.628,PGAPAYCVLME [MYO5A_Y1245_R1246C],1.64,1.58,0.876,1.12,3.07,1.44,4.03,1.5,1.27,0.964,1.25,1.38,1.64
0.275,0.677,0.895,PGDGEYFTLQI [TP53_Y327_L323G],2.91,10.5,0.651,3.54,0.895,1.57,0.705,0.892,1.75,4.02,4.13,1.95,7.71
0.997,1.12,1.61,PGIRMYQVQFN [LRFN1_Y454_YF],0.619,0.31,0.423,0.504,0.467,0.863,0.349,0.505,0.636,0.583,0.789,0.384,0.531
0.545,0.658,0.898,PGLSSYGVPAS [FLNB_Y1530],0.677,0.56,0.408,0.661,0.543,0.738,0.497,0.435,0.913,0.474,0.599,0.482,0.526
0.695,0.777,0.829,PHIKTYMRPSP [TDP1_Y497],0.702,0.629,0.543,0.861,0.645,0.688,0.429,0.518,0.654,0.435,0.586,0.441,0.547

Sequence,SH2 binding enrichment (c-Src SH2),SH2 binding enrichment (SHP2-C SH2),SH2 binding enrichment (Grb2 SH2),phosphorylation enrichment (AncSZ),phosphorylation enrichment (FGFR1),phosphorylation enrichment (Fer (mouse)),phosphorylation enrichment (Fyn),phosphorylation enrichment (EPHB1),phosphorylation enrichment (Fes),phosphorylation enrichment (MERTK),phosphorylation enrichment (EPHB2),phosphorylation enrichment (c-Abl (mouse)),phosphorylation enrichment (c-Src),phosphorylation enrichment (Jak2),phosphorylation enrichment (Hck),phosphorylation enrichment (FGFR3)
NFRTIYVNANE [KCNH2_Y475_T474I],3.07,8.36,19,0.659,0.417,0.428,0.423,0.543,0.775,0.367,0.5,0.509,0.44,0.717,0.525,0.529
